In PMC12669754:

Target: murine DNGR-1 (CLEC9A) expressed in B3Z NFAT reporter cells with SYK (mouse) (UniProt Q8BRU4)
Chain of UniProt Q8BRU4 (Q8BRU4 whole entry): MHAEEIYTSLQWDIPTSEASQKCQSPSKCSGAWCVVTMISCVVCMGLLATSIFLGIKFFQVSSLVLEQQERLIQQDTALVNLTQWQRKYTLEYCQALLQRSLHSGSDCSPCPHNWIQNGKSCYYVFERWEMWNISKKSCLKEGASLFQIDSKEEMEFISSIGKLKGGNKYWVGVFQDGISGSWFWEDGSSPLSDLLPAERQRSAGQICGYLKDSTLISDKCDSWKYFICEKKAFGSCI

β-galactosidase (NFAT-LacZ) reporter activity of B3Z cells expressing DNGR-1 and SYK, stimulated with DNGR-1L, dose-dependent; EC50: 5 nM
Substance: DNGR-1 ligand (DNGR-1L), F-actin-myosin II complexes (from UniProt P68135 1-377)
